Test results reported in patent publication US20110263454A1, “Methods of Identifying Functional Characteristics of Promoters, Transcription Modifying Proteins and Transcription Modulating Agents” (Salk Institute for Biological Studies, priority 2008, published 2011).

Tests used:
[1] = system: Bmal1 promoter; assay: NHR-promoter luciferase screen, Bmal1 promoter; type: cell-based, mouse; conditions: for Luc. act., normalized to lacZ / Normalized Luc. act., normalized to control: Bmal1 promoter, HR component without or with ligand; for mBmal1 promoter reporter activity: transcription factor +/- ligand, control = 1.00; for regulation of the Bmal1 promoter: FIG. 2c, in words
Experimental: (§1) The use, feasibility, and reproducibility of the functional NHR-promoter screen in a 48-well format have been tested validated. Briefly, there were co-expressed 50 ng of each NHR/NHR homodimer or NHR/RXR heterodimer with 100 ng promoter/luciferase construct and 50 ng of LacZ (as a control for transfection efficiency) in CV-1 cells using Fugene HD (Roche) as a transfection reagent (alternatively or additionally, a CMV-YFP construct can be used as a transfection control). Each of the nuclear hormone receptors that were used in these experiments was cloned into a pcDNA3.1 vector and comprised a C-terminally linked V5H6 tag. Twenty-four hours after transfection, appropriate ligands were added, where applicable, (see Table 5 for various ligands and concentrations and after 48 hrs, samples were assayed for luciferase and LacZ activity. To measure for luciferase activity 15 ul of sample was added to 30 ul of luciferase buffer (20 mM tricine, 1.07 mM MgCarbonate, 2.67 mM MgSulfate, 0.1 mM Naz-EDTA, 5 mM DTT, 5 mM ATP, 0.15 mg/ml CoA, 0.5 mM Luciferin), mixed briefly, and run in a Perkin Elmer Victor 5 luminometer. Thus, the functional NHR-promoter screen was used to observe the transcriptional activity of 29 promoters from various physiological pathways including inflammation, lipid and sugar metabolism, cholesterol transport, xenobiotic metabolism, and circadian rhythm.
(§2) The promoters that facilitate transcription of the indicated gene products that were tested using the protocols described herein are listed in the first row of the table. The nuclear hormone receptors and, where applicable, ligands that were assayed for their transcriptional effects on the promoters are listed in the first column of the table. The data represent the luciferase activity of each sample normalized to both the lacZ activity of that sample and to a control, e.g., no NHR or ligand, as customary in the art. As described previously, these normalizations allow the transcriptional activity of each reporter cell to be compared to other samples.
(§3) Tables 7-40 show the transcriptional effects of the hormone receptors, and, where applicable, ligands (orphan receptors are screened without ligand), on each individual promoter. […] The control data of each table are shown in their last rows.

[2] = system: hIRF7 promoter; assay: NHR-promoter luciferase screen, hIRF7 promoter; type: cell-based, human; conditions: for Normalized Luc. act., normalized to control / Luc. act., normalized to lacZ: IRF7 promoter reporter; for Normalized Luc. act., normalized to control: HR without or with its ligand, relative to control; for Luc. act., normalized to lacZ: hormone receptor (HR) without or with its ligand; for hIRF7 promoter reporter activity: transcription factor +/- ligand, control = 1.00
Experimental: as §1, §2, §3

[3] = system: mUCP1 promoter; assay: NHR-promoter luciferase screen, mUCP1 promoter; type: cell-based, mouse; conditions: for Luc. act., normalized to lacZ / Normalized Luc. act., normalized to control: mUCP1 promoter reporter, co-transfected HR, with or without its ligand; for Normalized Luc. act., normalized to control: relative to control; for luciferase activity normalized to lacZ activity and to a control, mUCP!: mUCP! promoter-luciferase, CV-1 cells, NHR +/- ligand, control = 1.00
Experimental: as §1, §2, §3

[4] = system: mAgrp promoter; assay: NHR-promoter luciferase screen, mAgrp promoter; type: cell-based, mouse; conditions: for Results of assays of transcription factor (+/- ligand) with mAgrp: Table 6d, luciferase activity relative to control (control = 1.00); for Luc. act., normalized to lacZ / Normalized Luc. act., normalized to control: mAgrp promoter, HR component with or without ligand; for Normalized Luc. act., normalized to control: relative to control
Experimental: as §1, §2, §3

[5] = system: mGhrelin promoter; assay: NHR-promoter luciferase screen, mGhrelin promoter; type: cell-based, mouse; conditions: for Luc. act., normalized to lacZ / Normalized Luc. act., normalized to control: Table 8, mGhrelin; for Results of assays of transcription factor (+/- ligand) with mGhrelin: Table 6d, luciferase activity relative to control (control = 1.00)
Experimental: as §1, §2, §3

Row | Molecule | Luc. act., normalized to lacZ [1] | Normalized Luc. act., normalized to control [1] | mBmal1 promoter reporter activity [1] | Normalized Luc. act., normalized to control [2] | Luc. act., normalized to lacZ [2] | hIRF7 promoter reporter activity [2] | Luc. act., normalized to lacZ [3] | Normalized Luc. act., normalized to control [3] | luciferase activity normalized to lacZ activity and to a control, mUCP! [3] | Results of assays of transcription factor (+/- ligand) with mAgrp [4] | Luc. act., normalized to lacZ [4] | Normalized Luc. act., normalized to control [4] | Luc. act., normalized to lacZ [5] | Normalized Luc. act., normalized to control [5] | Results of assays of transcription factor (+/- ligand) with mGhrelin [5] | regulation of the Bmal1 promoter [1]
1 | HNF4a: Hepatocyte Nuclear Factor α (NR2A1), cDNA driver (protein, UniProt P41235 1-474, looked up) Hepatocyte nuclear factor …: MRLSKTLVDMDMADYSAALDPAYTTLEFENVQVLTMGNDTSPSEGTNLNAPNSLGVSALCAICGDRATGKHYGASSCDGCKGFFRRSVRKNHMYSCRFSRQCVVDKDKRNQCRYCRLKKCFRAGMKKEAVQNERDRISTRRSSYEDSSLPSINALLQAEVLSRQITSPVSGINGDIRAKKIASIADVCESMKEQLLVLVEWAKYIPAFCELPLDDQVALLRAHAGEHLLLGATKRSMVFKDVLLLGNDYIVPRHCPELAEMSRVSIRILDELVLPFQELQIDDNEYAYLKAIIFFDPDAKGLSDPGKIKRLRSQVQVSLEDYINDRQYDSRGRFGELLLLLPTLQSITWQMIEQIQFIKLFGMAKIDNLLQEMLLGGSPSDAPHAHHPLHPHLMQEHMGTNVIVANTMPTHLSNGQMCEWPRPRGQAATPETPQPSPPGGSGSEPYKLLPGAVATIVKPLSAIPQPTITKQEVI | 10.1 | 0.6 | 0.65 | 1.4 | 36.0 | 1.36 | 2.8 | 0.6 | 0.63 | 0.91 | 36.1 | 0.9 | 42.6 | 0.8 | 0.82 | 
2 | LXRb: Liver X Receptor β (NR1H2), cDNA driver (protein, UniProt P55055 1-460, looked up) Oxysterols receptor LXR-beta: MSSPTTSSLDTPLPGNGPPQPGAPSSSPTVKEEGPEPWPGGPDPDVPGTDEASSACSTDWVIPDPEEEPERKRKKGPAPKMLGHELCRVCGDKASGFHYNVLSCEGCKGFFRRSVVRGGARRYACRGGGTCQMDAFMRRKCQQCRLRKCKEAGMREQCVLSEEQIRKKKIRKQQQESQSQSQSPVGPQGSSSSASGPGASPGGSEAGSQGSGEGEGVQLTAAQELMIQQLVAAQLQCNKRSFSDQPKVTPWPLGADPQSRDARQQRFAHFTELAIISVQEIVDFAKQVPGFLQLGREDQIALLKASTIEIMLLETARRYNHETECITFLKDFTYSKDDFHRAGLQVEFINPIFEFSRAMRRLGLDDAEYALLIAINIFSADRPNVQEPGRVEALQQPYVEALLSYTRIKRPQDQLRFPRMLMKLVSLRTLSSVHSEQVFALRLQDKKLPPLLSEIWDVHE | 17.4 | 1.1 | 1.11 | 1.7 | 45.1 | 1.71 | 17.2 | 3.9 | 3.88 | 0.78 | 31.0 | 0.8 | 46.7 | 0.9 | 0.89 | 
3 | RORa: RAR-related Orphan Receptor α (NR1F1), cDNA driver (protein, UniProt P35398 1-523, looked up) Nuclear receptor ROR-alpha: MESAPAAPDPAASEPGSSGADAAAGSRETPLNQESARKSEPPAPVRRQSYSSTSRGISVTKKTHTSQIEIIPCKICGDKSSGIHYGVITCEGCKGFFRRSQQSNATYSCPRQKNCLIDRTSRNRCQHCRLQKCLAVGMSRDAVKFGRMSKKQRDSLYAEVQKHRMQQQQRDHQQQPGEAEPLTPTYNISANGLTELHDDLSNYIDGHTPEGSKADSAVSSFYLDIQPSPDQSGLDINGIKPEPICDYTPASGFFPYCSFTNGETSPTVSMAELEHLAQNISKSHLETCQYLREELQQITWQTFLQEEIENYQNKQREVMWQLCAIKITEAIQYVVEFAKRIDGFMELCQNDQIVLLKAGSLEVVFIRMCRAFDSQNNTVYFDGKYASPDVFKSLGCEDFISFVFEFGKSLCSMHLTEDEIALFSAFVLMSADRSWLQEKVKIEKLQQKIQLALQHVLQKNHREDGILTKLICKVSTLRALCGRHTEKLMAFKAIYPDIVRLHFPPLYKELFTSEFEPAMQIDG | 115.6 | 7.4 | 7.40 | 1.5 | 39.9 | 1.51 | 1.7 | 0.4 | 0.38 | 1.65 | 65.6 | 1.7 | 46.6 | 0.9 | 0.89 | specific activation
4 | RORg: RAR-related Orphan Receptor γ (NR1F3), cDNA driver (protein, UniProt P51449 1-518, looked up) Nuclear receptor ROR-gamma: MDRAPQRQHRASRELLAAKKTHTSQIEVIPCKICGDKSSGIHYGVITCEGCKGFFRRSQRCNAAYSCTRQQNCPIDRTSRNRCQHCRLQKCLALGMSRDAVKFGRMSKKQRDSLHAEVQKQLQQRQQQQQEPVVKTPPAGAQGADTLTYTLGLPDGQLPLGSSPDLPEASACPPGLLKASGSGPSYSNNLAKAGLNGASCHLEYSPERGKAEGRESFYSTGSQLTPDRCGLRFEEHRHPGLGELGQGPDSYGSPSFRSTPEAPYASLTEIEHLVQSVCKSYRETCQLRLEDLLRQRSNIFSREEVTGYQRKSMWEMWERCAHHLTEAIQYVVEFAKRLSGFMELCQNDQIVLLKAGAMEVVLVRMCRAYNADNRTVFFEGKYGGMELFRALGCSELISSIFDFSHSLSALHFSEDEIALYTALVLINAHRPGLQEKRKVEQLQYNLELAFHHHLCKTHRQSILAKLPPKGKLRSLCSQHVERLQIFQHLHPIVVQAAFPPLYKELFSTETESPVGLSK | 58.9 | 3.8 | 3.77 | 1.7 | 44.4 | 1.69 | 2.8 | 0.6 | 0.62 | 2.51 | 99.6 | 2.5 | 109.2 | 2.1 | 2.09 | specific activation
